Experimental data: patent publication US20050143472A1, “Novel treatment for pathologies associated with oxidative damage” (priority 2002, published 2005)

Assay: Freeze/thaw stability of recombinant mPAO activity
Type: physicochemical
Description: Using the conditions for the steady-state kinetic assay described below, mPAO was determined to be stable at 2-4 mg/mL when frozen at −20° C. or −80° C. and thawed through several cycles. […] Thus, mPAO was stored at −20° C. in the presence of 33% (v/v) ethylene glycol. Ethylene glycol elimination and buffer exchange was accomplished easily by several concentration/dilution cycles using Centricon-10 centrifuge concentrators.

B1: mPAO: recombinant murine peroxisomal polyamine oxidase (SEQ ID NO:4) produced in E. coli (protein, listed as Mus musculus)
chain: MAFPGPRVLVVGSGIAGLGAAQKLCSHRAAPHLRVLEATASAGGRIRSERCFGGVVELGAHWIHGPSQDNPVFQLAAEFGLLGEKELSEENQLVDTGGHVALPSMIWSSSGTSVSLELMTEMARLFYGLIERTREFLNESETPMASVGEFLKKEISQQVASWTEDDEDTRKRKLAILNTFFNIKCCVSGTHSMDLVALAPFGEYTVLPGLDCILAGGYQGLTDRILASLPKDTVAFDKPVKTIHWNGSFQEAAFPGETFPVLVECEDGARLPAHHVIVTVPLGFSKEHQDTFFEPPLPAKKAEAIKKLGFGTNNKIFLEFEEPFWEPDCQFIQVVWEDTSPLQDTALSLQDTWFKKLIGFLVQPSFESSHVLCGFIAGLESEFMETLSDEEVLLSLTQVLRRVTGNPQLPAAKSVLSSRWHSAPYTRGSYSYVAVGSTGDDLDLMAQPLPADGTGTQLQVLFAGEATHRTFYSTTHGALLSGWREADRLIGLWDSQAEQSRPRL
30 μg/mL, several freeze/thaw cycles
  stability of activity on freezing and thawing: activity was lost quickly
2-4 mg/mL, frozen at −20° C. or −80° C., several cycles
  stability of activity on freezing and thawing: stable
33% (v/v) ethylene glycol added, 20 μg/mL to 4 mg/mL
  stability of activity on freezing and thawing: stable for several cycles of freezing and thawing
